Data published in publication PMC11348317 (Proceedings of the National Academy of Sciences of the …, 2024).

Target: the molecule itself
Experiment: FRET or BRET

B1: Escherichia coli transthyretin-related protein (EcTRP), single Cys variant Asn94Cys with N-terminal His5-tag, fluorophore-labelled (enzyme, UniProt P76341 24-137, looked up)
chain: AQQNILSVHILNQQTGKPAADVTVTLEKKADNGWLQLNTAKTDKDGRIKALWPEQTATTGDYRVVFKTGDYFKKQNLESFFPEIPVEFHINKVCEHYHVPLLLSQYGYSTYRGS
modifications: Cys94 labelled with DyLight 550 maleimide (FRET donor) or Alexa 647 maleimide (FRET acceptor)
half-life of subunit exchange: > 30 h
